Assay results published in US7255862.

Legend:
[1] = biological target: feline immunodeficiency virus (FIV) Env, Villefranche strain, expressed by ALVAC recombinants vCP242 / vCP255 (feline immunodeficiency virus, Villefranche strain); experiment: sandwich kinetic ELISA, plate coated with pooled FIV env-specific MAb 2 ug/well, env lysate 1 ug/well, control rabbit serum 1:100
[2] = biological target: feline immunodeficiency virus (FIV) Env, Villefranche strain, expressed by ALVAC recombinants vCP242 / vCP255 (feline immunodeficiency virus, Villefranche strain); experiment: sandwich kinetic ELISA, plate coated with pooled FIV env-specific MAb 2 ug/well, env lysate 5 ug/well, control rabbit serum 1:100
[3] = biological target: feline immunodeficiency virus (FIV) Env, Villefranche strain, expressed by ALVAC recombinants vCP242 / vCP255 (feline immunodeficiency virus, Villefranche strain); experiment: sandwich kinetic ELISA, plate coated with pooled FIV env-specific MAb 2 ug/well, env lysate 0.2 ug/well, control rabbit serum 1:100
[4] = biological target: feline immunodeficiency virus (FIV) Env, Villefranche strain, expressed by ALVAC recombinants vCP242 / vCP255 (feline immunodeficiency virus, Villefranche strain); experiment: sandwich kinetic ELISA, plate coated with pooled FIV gag-specific MAb 2 ug/well (mismatched capture control), env lysate 1 ug/well, control rabbit serum 1:100
[5] = biological target: feline immunodeficiency virus (FIV) Env, Villefranche strain, expressed by ALVAC recombinants vCP242 / vCP255 (feline immunodeficiency virus, Villefranche strain); experiment: sandwich kinetic ELISA, plate coated with pooled FIV gag-specific MAb 2 ug/well (mismatched capture control), env lysate 5 ug/well, control rabbit serum 1:100
[6] = biological target: feline immunodeficiency virus (FIV) Env, Villefranche strain, expressed by ALVAC recombinants vCP242 / vCP255 (feline immunodeficiency virus, Villefranche strain); experiment: sandwich kinetic ELISA, plate coated with pooled FIV gag-specific MAb 2 ug/well (mismatched capture control), env lysate 0.2 ug/well, control rabbit serum 1:100

Rabbit A039 prebleed serum
KELISA (mOD/min) [1]: 0.7 mOD/min | KELISA (mOD/min) [2]: 0.9 mOD/min | KELISA (mOD/min) [3]: 0.9 mOD/min | KELISA (mOD/min) [4]: 1.2 mOD/min | KELISA (mOD/min) [5]: 1 mOD/min | KELISA (mOD/min) [6]: 1 mOD/min
